How the values were obtained:
Settings in all cases: modification not given
[1] = biological target: MDM2 (synMDM2) 25-109 (Homo sapiens), Q00987; assay: SPR direct
[2] = biological target: MDM2 (synMDM2) 25-109 (Homo sapiens), Q00987; assay: SPR
[3] = biological target: T1, MDMX (synMDMX) 24-108 (Homo sapiens), O15151; assay: SPR
T1 chain: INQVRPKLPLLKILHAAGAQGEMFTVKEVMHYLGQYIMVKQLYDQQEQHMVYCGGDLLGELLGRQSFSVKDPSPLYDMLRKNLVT

[4] = biological target: MDM2 (synMDM2) 25-109 (Homo sapiens), Q00987; assay: SPR; remark: listed apart in the source

MDM2 (synMDM2) 25-109 (Homo sapiens), Q00987, sequence (Q00987 25-109): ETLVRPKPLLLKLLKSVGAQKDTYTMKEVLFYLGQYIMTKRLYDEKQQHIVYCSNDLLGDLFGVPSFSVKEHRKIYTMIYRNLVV

B1: stoppin-2 (peptide)
chain: CYSFDCLWKCLAMGFRRGKCRRRKCKC
Q: B1 was tested. Which Kd [1] did it give?
A: 493 nM

B2: stoppin-1 (peptide)
chain: CYSFDCLWKCLAMGFSSGKCINSKCKC
Q: For B2, which Kd [2] is on record?
A: 790 nM

Q: What about the Kd [3] of the same binder?
A: 994 nM

Q: And the Kd [4]?
A: 320 nM

Source: publication PMC3810402
